B1: Ang1: Angiopoietin 1, Tie2 ligand, overexpressed in the vasculature from the pTetOS-Ang1 transgene (protein, UniProt Q15389 16-498, looked up)
Angiopoietin-1: HIGCSNQRRSPENSGRRYNRIQHGQCAYTFILPEHDGNCRESTTDQYNTNALQRDAPHVEPDFSSQKLQHLEHVMENYTQWLQKLENYIVENMKSEMAQIQQNAVQNHTATMLEIGTSLLSQTAEQTRKLTDVETQVLNQTSRLEIQLLENSLSTYKLEKQLLQQTNEILKIHEKNSLLEHKILEMEGKHKEELDTLKEEKENLQGLVTRQTYIIQELEKQLNRATTNNSVLQKQQLELMDTVHNLVNLCTKEGVLLKGGKREEEKPFRDCADVYQAGFNKSGIYTIYINNMPEPKKVFCNMDVNGGGWTVIQHREDGSLDFQRGWKEYKMGFGNPSGEYWLGNEFIFAITSQRQYMLRIELMDWEGNRAYSQYDRFHIGNEKQNYRLYLKGHTGTAGKQSSLILHGADFSTKDADNDNCMCKCALMLTGGWWFDACGPSNLNGMFYTAGQNHGKLNGIKWHYFKGPSYSLRSTTMMIRPLDF

Test system: AT derm mice (pTek-tTA:pTetOS-Tek)
Assay: Enforced expression of Ang1 or Ang2 in AT derm mice (triple transgenic)
Assay type: in vivo
Conditions: for atopic dermatitis phenotype (erythema, ear micro-haemorrhages, tail scaly plaque): transgenic overexpression in the vasculature of AT derm mice
Text: Briefly, construction of the driver transgene, pTek-tTA, and the responder transgenes, pTetOS-Tek, pTetos-Ang1, and pTetos-Ang2 have been described previously. All transgenic lines were maintained and genotyped as previously described (Voskas et al. (2005) Am. J. Pathol. 166(3):843-855, Ward et al. (2004) Am. J. Pathol. 165(3):889-899, Bureau et al. (2006) Am. J. Physiol. Heart Circ. Physiol. 291(2):H948-965). Males were housed with a single female for 14 to 20 days and then separated into individual cages. CD1 mice (an outbred mouse line) were maintained in a barrier facility. All adult mice used in these studies were 2 to 6 months old.
The present inventors have previously shown that enforced overexpression of the Tie2 receptor in the vasculature results in an inflammatory skin phenotype in mice (FIG. 3A) that is consistent with many hallmarks of human atopic dermatitis/psoriasis (Voskas et al. (2005) Am. J. Pathol. 166(3), 843-855, Voskas et al. (2009) J. Leukoc. Biol. 84(1), 59-67). […] Using common mouse transgenic approaches, a system was devised in which the impact of enforced expression of Ang1 or Ang2 could be assessed in this mouse model of inflammatory skin disease. This is the first such system where the implications of Ang1 or Ang2 expression can be simultaneously addressed in a single pathological state. […] This was marked by a gross reduction in snout, conjunctiva, ear and paw erythema (FIGS. 3C-E).

Molecule	atopic dermatitis phenotype (erythema, ear micro-haemorrhages, tail scaly plaque)	epidermal hyperplasia and dermal leukocyte infiltration (histology) (triple transgenic mice)
Ang2: Angiopoietin 2, natural antagonist of Ang1, overexpressed from the pTetOS-Ang2 transgene	exacerbated all of the noted phenotypic hallmarks	
B1	dramatic amelioration of disease	resolution of epidermal hyperplasia
